Publication PMC8792006, “Engineering the stambomycin modular polyketide synthase yields 37-membered mini-stambomycins” (Nature Communications, 2022)
Residue numbers refer to the chain shown, from its start.

T1: ^NDD9 Val (N-terminal docking domain of stambomycin PKS subunit Pks9, version with the Val start site) (Streptomyces ambofaciens ATCC23877)
T1 chain: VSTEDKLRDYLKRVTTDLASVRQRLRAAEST

T2: ^NDD5 (N-terminal docking domain of stambomycin PKS subunit Pks5) (Streptomyces ambofaciens ATCC23877)
T2 chain: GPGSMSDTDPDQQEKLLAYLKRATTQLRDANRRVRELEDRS

T3: ^NDD9 Met (N-terminal docking domain of stambomycin PKS subunit Pks9, version with the Met start site) (Streptomyces ambofaciens ATCC23877)
T3 chain: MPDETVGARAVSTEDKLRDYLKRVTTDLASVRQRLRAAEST

B1: ^CDD4 helix swap (C-terminal docking domain of Pks4 with its docking α-helix exchanged for that of ^CDD8) (domain or fragment)
chain: GPGSYADRLLAELARLEADLTRMDGDEEDRTRLAARLRALADRCQGERTRRDDNLDAADDDNLFAFIDNELGA
B2: ^CDD4 wt (C-terminal docking domain of stambomycin PKS subunit Pks4) (domain or fragment)
chain: GPGSYADRLLAELARLEADLTRMDGDEEDRTRLAARLRALADRCQGERTRRDDNLDAASIEEVFDLLDTEFETP
B3: ^CDD4 SDM (C-terminal docking domain of Pks4 with 3 specificity-code residues mutated to match ^CDD8) (domain or fragment)
chain: B2 chain with E61D, L67I, F71L
B4: ^CDD8 (C-terminal docking domain of stambomycin PKS subunit Pks8) (domain or fragment)
chain: GPGSYGPAALLADLDRLDAALAGTGPGDETRSRVISRLHALLARHDTADGSGLVTAAGNLDAADDDNLFAFIDNELGA

What was measured:
[1] = target: the molecule itself; test: SEC-MALS; Superdex75 10/300, 20 °C, 0.5 mL min^-1, 20 mM HEPES, 100 mM NaCl, 0.5 mM TCEP, pH 7.5; each docking domain alone
[2] = target: T1, ^NDD9 Val (N-terminal docking domain of …); test: ITC; ^CDD (700 μM) in the syringe titrated into the ^NDD in the cell (^NDD5 70 μM; ^NDD9 Met 80 μM; ^NDD9 Val 120 μM); 20 °C; buffer GF (20 mM HEPES, 100 mM NaCl, 0.5 mM TCEP, pH 7.5); one-site binding model; two independent titrations; settings: both partners purified
[3] = target: T2, ^NDD5 (N-terminal docking domain of …); test: as above; settings: both partners purified
[4] = target: T3, ^NDD9 Met (N-terminal docking domain of …); test: as above; settings: both partners purified

| Binder | stoichiometry N [1] | Kd [2] | Kd [3] | stoichiometry N [3] | Kd [4] | stoichiometry N [4] | stoichiometry N [2] |
| --- | --- | --- | --- | --- | --- | --- | --- |
| B1 | 2 | 21 ± 0.3 µM | – | – | – | – | – |
| B2 | 2 | – | 14.5 ± 0.9 µM | 2 monomeric ^NDDs per homodimeric ^CDD | – | – | – |
| B3 | 2 | – | – | – | – | – | – |
| B4 | 2 | 22 ± 1 µM | – | – | 33 ± 2 µM | 2 monomeric ^NDDs per homodimeric ^CDD | 2 monomeric ^NDDs per homodimeric ^CDD |
